How the values were obtained:
[1] = molecular target: T1, CCT4 subunit of yeast TRiC/CCT (yeast, UniProt P39078 1-528); test: cryo-EM structure; purified yeast TRiC, 1 mg/ml, with 1 mM ADP and 5 mM MgCl2, 15 min at 30 °C before freezing; five conformational states S1-S5 (closed to open) from one sample; contacts differ between the states; details: both partners purified
T1 construct: CCT4 subunit of the chaperonin TRiC/CCT, yeast; subunit of the purified hetero-oligomeric complex; Purified according to Zang et al., 2016; source: endogenous, purified from yeast lysate as part of TRiC (calmodulin resin, eluted with 2 mM EGTA)

[2] = molecular target: the molecule itself; test: as above

T1 sequence (P39078 whole entry): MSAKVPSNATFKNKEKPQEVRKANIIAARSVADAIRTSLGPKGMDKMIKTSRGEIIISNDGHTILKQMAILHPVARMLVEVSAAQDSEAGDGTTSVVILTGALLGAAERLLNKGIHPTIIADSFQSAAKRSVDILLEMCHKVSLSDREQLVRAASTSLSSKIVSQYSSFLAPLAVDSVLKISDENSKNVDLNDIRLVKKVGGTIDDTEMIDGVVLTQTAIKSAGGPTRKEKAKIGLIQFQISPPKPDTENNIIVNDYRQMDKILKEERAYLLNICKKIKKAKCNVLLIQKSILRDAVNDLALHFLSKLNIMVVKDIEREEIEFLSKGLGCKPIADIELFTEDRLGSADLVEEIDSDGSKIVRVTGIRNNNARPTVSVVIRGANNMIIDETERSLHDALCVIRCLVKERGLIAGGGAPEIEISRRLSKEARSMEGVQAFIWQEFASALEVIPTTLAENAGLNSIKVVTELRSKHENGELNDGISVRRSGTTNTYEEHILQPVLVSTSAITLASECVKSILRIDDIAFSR

Binder | binding result [1] | binding result [2]
CCT2 subunit of yeast TRiC/CCT (natural protein, UniProt P39076 1-527, looked up, CCT2 subunit of the chaperonin TRiC/CCT, yeast; subunit of the purified hetero-oligomeric complex; Purified according to Zang et al., 2016; source: endogenous, purified from yeast lysate as part of TRiC (calmodulin resin, eluted with 2 mM EGTA)) MSVQIFGDQVTEERAENARLSAFVGAIAVGDLVKSTLGPKGMDKLLQSASSNTCMVTNDGATILKSIPLDNPAAKVLVNISKVQDDEVGDGTTSVTVLSAELLREAEKLIDQSKIHPQTIIEGYRLASAAALDALTKAAVDNSHDKTMFREDLIHIAKTTLSSKILSQDKDHFAELATNAILRLKGSTNLEHIQIIKILGGKLSDSFLDEGFILAKKFGNNQPKRIENAKILIANTTLDTDKVKIFGTKFKVDSTAKLAQLEKAEREKMKNKIAKISKFGINTFINRQLIYDYPEQLFTDLGINSIEHADFEGVERLALVTGGEVVSTFDEPSKCKLGECDVIEEIMLGEQPFLKFSGCKAGEACTIVLRGATDQTLDEAERSLHDALSVLSQTTKETRTVLGGGCAEMVMSKAVDTEAQNIDGKKSLAVEAFARALRQLPTILADNAGFDSSELVSKLRSSIYNGISTSGLDLNNGTIADMRQLGIVESYKLKRAVVSSASEAAEVLLRVDNIIRARPRTANRQHM | binds | binds
CCT6 subunit of yeast TRiC/CCT (natural protein, CCT6 subunit of the chaperonin TRiC/CCT, yeast; subunit of the purified hetero-oligomeric complex; Purified according to Zang et al., 2016; source: endogenous, purified from yeast lysate as part of TRiC (calmodulin resin, eluted with 2 mM EGTA)) not shown | – | binds
